US20240317871A1 (IMMUNOMIC THERAPEUTICS, published 2024)

Experiments:
[1] = molecular target: T1, Human HEVM recombinant protein (Sino Biological, 10334-H02H) (human, UniProt Q92956 39-202); test: competition ELISA, competitor BTLA-His
T1 construct: construct known only by catalogue number; also called HVEM; human HVEM
T1 sequence (looked up): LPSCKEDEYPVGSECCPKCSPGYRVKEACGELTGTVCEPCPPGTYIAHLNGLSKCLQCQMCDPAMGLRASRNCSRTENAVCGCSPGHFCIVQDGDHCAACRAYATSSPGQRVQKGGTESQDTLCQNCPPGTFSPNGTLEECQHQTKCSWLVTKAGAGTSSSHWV
Outline: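 Competitor (BTLA-His or LIGHT-His, 400 nM) premixed with 7-point 3-fold antibody dilutions, final top 100 nM or 325 nM respectively, then added 1 Hr at RT to plate-coated HVEM (4 ug/ml). His-tag signal read at 450 nm after HRP/TMB; IC50 derived.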

[2] = molecular target: T2, cynomolgus monkey HVEM (cynomolgus monkey, UniProt A0A2K5W0R1 39-203); test: ELISA
T2 sequence: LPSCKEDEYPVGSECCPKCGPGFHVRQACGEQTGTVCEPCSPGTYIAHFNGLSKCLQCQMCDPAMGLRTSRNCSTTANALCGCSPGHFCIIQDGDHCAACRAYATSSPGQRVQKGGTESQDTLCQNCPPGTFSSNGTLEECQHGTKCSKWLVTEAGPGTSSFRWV

[3] = molecular target: T3, murine HVEM (murine, UniProt Q80WM9 39-206, limits assumed); test: ELISA
T3 construct: also called Mouse
T3 sequence (looked up): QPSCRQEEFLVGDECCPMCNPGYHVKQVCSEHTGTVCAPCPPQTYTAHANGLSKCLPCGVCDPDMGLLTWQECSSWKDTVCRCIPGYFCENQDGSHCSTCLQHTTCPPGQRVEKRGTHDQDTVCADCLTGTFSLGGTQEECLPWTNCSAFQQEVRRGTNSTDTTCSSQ

[4] = molecular target: T4, human HVEM (human, UniProt Q92956 39-202, limits assumed); test: ELISA
T4 sequence (looked up): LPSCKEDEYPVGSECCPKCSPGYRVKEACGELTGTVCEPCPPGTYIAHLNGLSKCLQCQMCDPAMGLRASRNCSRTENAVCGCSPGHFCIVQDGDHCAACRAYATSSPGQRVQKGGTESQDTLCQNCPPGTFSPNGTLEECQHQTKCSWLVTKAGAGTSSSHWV

[5] = molecular target: T5, His-tagged human HVEM (human, UniProt Q92956 39-202, limits assumed); test: BLI OctetRed96, mAb captured, 200 nM His-HVEM
T5 construct: Analyte of the BLI assay, 200 nM in PBS; not shown: His tag
T5 sequence (looked up): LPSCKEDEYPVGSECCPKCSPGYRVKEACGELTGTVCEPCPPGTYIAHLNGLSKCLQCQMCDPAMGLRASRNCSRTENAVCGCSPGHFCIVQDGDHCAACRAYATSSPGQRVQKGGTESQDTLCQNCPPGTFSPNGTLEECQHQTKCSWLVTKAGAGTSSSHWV
Outline: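 Kinetics (kon, koff, KD) were fitted from association in 200 nM His-HVEM in PBS and dissociation in PBS buffer. The mouse antibodies had been captured directly from culture supernatant onto anti-mouse IgG Fc sensors.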

[6] = molecular target: T1, Human HEVM recombinant protein (Sino …); test: competition ELISA, competitor LIGHT-His
Protocol: The competitive activity of HVEM antibody to BTLA or LIGHT was evaluated with ELISA-based competitive assay. Briefly Human HEVM recombinant protein (Sino Biological, 10334-H02H, 4 ug/ml, 100 ul/well) was coated to ELISA plate (Thermo Scientific, 469949, 4C overnight). A pre-mixture of HVEM antibody clone with seral dilution and 400 nM BTLA-His (R&D systems, 9235-BT-050) or LIGHT-His (SinoBiological, 10386-H07H) recombinant protein was made and added to the ELISA plate after blocking with 3% BSA (200 ul/well, RT 2 Hr) for 1 Hr at RT. The serial dilutions of HVEM antibody clone involve 7 different concentrations, with a 3-fold dilution performed start from 100 nM for BTLA or 325 nM for LIGHT competitive assay. The concentration was the final concentration. Plate was washed with PBST; diluted HRP-anti-His (Biolegend, 652504, 1:1000) with PBS containing 5% FBS was added 100 ul per well for 1 Hr at RT. TMB substrate (KPL, 52-00-00) 100 ul per well after washing and incubate at room temperature for 15 minutes; then stop the development by adding 100 ul stop solution (KPL, 50-85-06). Plate was read at 450 nm. The IC50 was calculated using GraphPad Prism software (GraphPad Software, Inc. San Diego, CA, USA).

IC50 [1]: 1.1 nM
ELISA signal [2]: 0.058
ELISA signal [3]: 0.043
ELISA signal [4]: 3.22
Kd [5]: 3.92 nM
koff [5]: 0.00148 s⁻¹
kon [5]: 378000 M⁻¹ s⁻¹
IC50 [6]: 15.3 nM
B1: Ab_043 (H5S15-29A24A) (antibody, V domains shown)
VH: EVQLQQSGAELVRPGALVKLSCKASGFNIKDDYMHWVKQRPEQGLEWIGWIDPENGNTIYDPKFQGKASITADTSSNTAYLQLSSLTSEDTAVYYCARGYSSSPYWGQGTLVTVSA
VL: DIVLTQSPASLAVSLGQRATISCKASQSVDYDGNSYMNWYQQKPRQPPKLLIYAASNLESGIPARFRGSGSGTDFTLNIHPVEEEDAATYYCQQSNEDPFTFGSGTKLEIK
notes: also called Ab_43
